Tests used:
[1] = target: T1, mutant form of Siah (Leu211 to Arg) (Mus musculus, UniProt P61092, L211R); assay: Binding of PHYL to mutant form of Siah; conditions: method not stated
T1 construct: made in house
T1 sequence (P61092 80-282 L211R): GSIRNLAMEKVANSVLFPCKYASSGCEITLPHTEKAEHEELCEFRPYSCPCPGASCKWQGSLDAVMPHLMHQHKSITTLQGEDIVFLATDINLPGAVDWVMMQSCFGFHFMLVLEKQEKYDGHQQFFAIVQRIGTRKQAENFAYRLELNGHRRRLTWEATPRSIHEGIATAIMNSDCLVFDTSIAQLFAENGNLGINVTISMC

Siah = target: T2, Siah (Mus musculus, UniProt P61092); assay: Interaction studies using bacterially expressed proteins; assay type: binding
T2 construct: made in house; host or cells: bacteria
T2 sequence (P61092 1-282): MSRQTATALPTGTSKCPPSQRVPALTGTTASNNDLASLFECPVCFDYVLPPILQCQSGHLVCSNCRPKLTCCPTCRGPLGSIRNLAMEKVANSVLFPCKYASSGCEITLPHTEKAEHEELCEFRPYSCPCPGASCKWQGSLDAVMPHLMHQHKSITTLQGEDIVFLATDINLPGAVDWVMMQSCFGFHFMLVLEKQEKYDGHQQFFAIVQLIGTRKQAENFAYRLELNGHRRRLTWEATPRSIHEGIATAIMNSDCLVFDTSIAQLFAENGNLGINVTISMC
From the text: PHYL is known to interact and function with SINA, the Drosophila orthologue of mammalian Siah, in the targeted degradation of the transcriptional repressor tramtrack 88 (TTK88). Applicants have shown that it interacts similarly with mammalian Siah.

binding to mutant form of Siah [1]: does not bind
affinity of interaction with Siah (in words) (Siah): high affinity
B1: PHYL: phyllopod (PHYL) protein from Drosophila (protein, UniProt Q27934 1-400, looked up)
Protein phyllopod: MSTNQQQQANPSAAVAAPAASSEYLKRTCLICGCHTNQTINIYEPRSGPNIVQLIQAKFKFQPLNEDKFLCFSCNNWLINWHSLQAVNSNEAESQSQSPSHMGNSVLQQERTKLRPVAMVRPTVRVQPQSQPQLQPQVPINPTPAPIVYSKRRASRRSASVSRMSRVLRQCCVESLRRSPKKRNQQSVFVCLRPQGQKRSNAICKVECVAPRRKPVERLVKDVAATATPTPVLNTQSTPTYQRFPQPSVDGKVVAMFRRLGTTLSREEPAAYSAESNPACSKLPQIMSPLKEAPRWTRDLDDDEILLEFDTAISEVLPTARYQVTHEENKENQQAQEMELELEEEEEVDGRAELEVVQEAEAPLEPQSHHKQGNSHQNSHQASIQLAGLRLPMGLSISLV

Reference: patent US20050079503A1, “Binding domain of Siah (seven in absentia homolog) protein” (PETER MacCALLUM CANCER INSTITUTE, ST. VINCENT'S INSTITUTE …, priority 2001, published 2005)
